In experiment [1] the target is GST-fused C-tail of the β1 adrenergic receptor (residues 373–477). Description: GST pull-down. Particulars: parent: est. 100; read off a plot.
Experiment [2] addresses GST-fused C-tail of the muscarinic M1 acetylcholine receptor (residues 414–460). The experiment is described as follows: GST pull-down. Particulars: parent: est. 100; read off a plot.
Experiment [3] addresses GST-fused C-tail of the insulin growth factor I receptor (residues 1268–1367). The experiment is described as follows: pull-down; GST-fused receptor C-tails immobilized on glutathione-Sepharose beads, incubated with [35S]-labelled in vitro translated GASPs 1 h at 4°C; 20 mM Tris-HCl pH 7.4, 150 mM NaCl, 1 mM EDTA, 1 mM DTT, 10% glycerol, 1% Triton X-100; Phosphor-imager quantification.

Experiment [4] concerns the target GST-fused C-tail of the α isoform of the thromboxane A2 receptor (residues 304–343). Described as above.
Another experiment deals with free GST. The experiment is described as above.
In experiment [5] the target is GST-fused C-tail of the type III transforming growth factor β receptor (residues 805–849). The description is as above.
Experiment [6] concerns the target T1, GST-fused C-tail of the calcitonin receptor (residues 407–490).
T1 sequence (P30988 whole entry, species assumed, looked up): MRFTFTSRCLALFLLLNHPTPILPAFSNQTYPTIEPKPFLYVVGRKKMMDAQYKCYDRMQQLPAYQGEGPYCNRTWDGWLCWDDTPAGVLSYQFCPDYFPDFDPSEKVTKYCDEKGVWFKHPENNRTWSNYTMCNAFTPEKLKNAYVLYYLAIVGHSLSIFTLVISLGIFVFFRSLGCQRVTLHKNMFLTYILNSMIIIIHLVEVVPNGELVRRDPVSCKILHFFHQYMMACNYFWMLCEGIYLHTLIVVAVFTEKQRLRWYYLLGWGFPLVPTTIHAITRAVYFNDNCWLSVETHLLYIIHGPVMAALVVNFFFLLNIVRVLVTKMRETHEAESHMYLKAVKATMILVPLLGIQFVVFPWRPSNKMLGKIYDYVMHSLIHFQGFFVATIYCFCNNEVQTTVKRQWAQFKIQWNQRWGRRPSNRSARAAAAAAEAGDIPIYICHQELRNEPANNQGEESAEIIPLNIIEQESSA
The description is as above.

In experiment [7] the target is GST-fused C-tail of the δ-opioid receptor (residues 314–372). Described as above.
Experiment [8] has as its target GST-fused C-tail of the β1 adrenergic receptor (residues 373–477). The experiment is described as above.
Experiment [9] deals with GST-fused C-tail of the muscarinic M1 acetylcholine receptor (residues 414–460). Described as above.
Experiment [10] addresses GST-fused C-tail of the histamine 2 receptor (residues 284–349). The description is as above.
In experiment [11] the target is T1, GST-fused C-tail of the calcitonin receptor (residues 407–490). The experiment is described as follows: GST pull-down. Particulars: parent: est. 100; read off a plot.

Sequence of GASP-9 (Q7L311 whole entry): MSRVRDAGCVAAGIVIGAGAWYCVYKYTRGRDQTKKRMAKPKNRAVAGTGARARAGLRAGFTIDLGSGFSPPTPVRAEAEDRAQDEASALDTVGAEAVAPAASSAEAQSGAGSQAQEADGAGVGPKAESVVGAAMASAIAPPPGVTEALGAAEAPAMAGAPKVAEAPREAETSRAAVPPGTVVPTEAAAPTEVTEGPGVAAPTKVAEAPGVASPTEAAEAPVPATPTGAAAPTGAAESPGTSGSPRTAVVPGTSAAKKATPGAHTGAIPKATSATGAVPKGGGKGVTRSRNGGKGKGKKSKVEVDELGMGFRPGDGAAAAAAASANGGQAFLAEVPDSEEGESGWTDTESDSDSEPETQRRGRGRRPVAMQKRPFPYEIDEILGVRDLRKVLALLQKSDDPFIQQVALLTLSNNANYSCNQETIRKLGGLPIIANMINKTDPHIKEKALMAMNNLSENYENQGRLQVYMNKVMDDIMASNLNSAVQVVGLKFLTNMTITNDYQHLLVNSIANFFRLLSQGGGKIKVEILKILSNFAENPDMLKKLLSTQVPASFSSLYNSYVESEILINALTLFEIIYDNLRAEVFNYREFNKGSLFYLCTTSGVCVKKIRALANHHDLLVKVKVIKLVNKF
Sequence of GPCR-associated sorting protein 2 (GASP-2), full-length (from UniProt Q96D09) SWFW>AAAA in first GASP motif; SWFW>AAAA in second GASP motif (GASP2-dm; residue numbers not printed) (Q96D09 whole entry, change not shown): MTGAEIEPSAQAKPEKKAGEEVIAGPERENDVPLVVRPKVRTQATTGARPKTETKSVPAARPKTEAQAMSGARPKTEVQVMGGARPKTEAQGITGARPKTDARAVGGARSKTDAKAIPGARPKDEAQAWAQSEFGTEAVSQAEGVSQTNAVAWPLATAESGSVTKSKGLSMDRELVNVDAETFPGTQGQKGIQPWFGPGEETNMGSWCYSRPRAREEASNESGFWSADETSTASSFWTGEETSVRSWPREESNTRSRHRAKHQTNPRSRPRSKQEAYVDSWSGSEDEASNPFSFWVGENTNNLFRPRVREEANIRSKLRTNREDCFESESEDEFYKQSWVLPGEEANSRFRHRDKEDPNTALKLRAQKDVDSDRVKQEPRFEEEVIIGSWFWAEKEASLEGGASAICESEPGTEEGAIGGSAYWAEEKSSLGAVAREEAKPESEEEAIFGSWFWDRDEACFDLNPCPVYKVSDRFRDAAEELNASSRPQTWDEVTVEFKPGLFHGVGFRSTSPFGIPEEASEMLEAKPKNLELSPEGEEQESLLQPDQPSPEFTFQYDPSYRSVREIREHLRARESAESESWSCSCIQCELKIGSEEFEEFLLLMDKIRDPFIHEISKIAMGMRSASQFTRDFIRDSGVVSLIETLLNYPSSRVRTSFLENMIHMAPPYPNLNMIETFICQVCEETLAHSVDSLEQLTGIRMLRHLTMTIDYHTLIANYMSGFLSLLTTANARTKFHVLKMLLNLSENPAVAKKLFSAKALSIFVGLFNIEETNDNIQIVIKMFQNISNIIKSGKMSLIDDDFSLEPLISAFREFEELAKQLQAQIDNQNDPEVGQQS
Sequence of GPCR-associated sorting protein 2 (GASP-2), full-length (from UniProt Q96D09) SWFW>AAAA in second GASP motif (GASP2-m2; residue numbers not printed) (Q96D09 whole entry, change not shown): as above
Sequence of GPCR-associated sorting protein 2 (GASP-2), full-length (from UniProt Q96D09) SWFW>AAAA in first GASP motif (GASP2-m1; residue numbers not printed) (Q96D09 whole entry, change not shown): as above
Sequence of GST-fused C-tail of the insulin growth factor I receptor (residues 1268–1367) (P08069 1268-1367): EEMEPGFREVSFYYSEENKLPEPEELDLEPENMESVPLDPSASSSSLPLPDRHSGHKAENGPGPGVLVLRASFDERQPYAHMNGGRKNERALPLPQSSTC
Sequence of GST-fused C-tail of the histamine 2 receptor (residues 284–349) (P25021 284-349): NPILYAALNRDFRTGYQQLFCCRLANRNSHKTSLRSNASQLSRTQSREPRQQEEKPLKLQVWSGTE
Sequence of GST-fused C-tail of the type III transforming growth factor β receptor (residues 805–849) (Q03167 805-849): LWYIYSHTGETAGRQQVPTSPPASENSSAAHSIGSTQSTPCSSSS

In the case of “GPCR-associated sorting protein 2 (GASP-2), full-length (from UniProt Q96D09) SWFW>AAAA in second GASP motif (GASP2-m2; residue numbers not printed)”, the percent of parent (% of wild-type GASP-2) was 11 in experiment [1] and 20 in [2].

With “GPCR-associated sorting protein 2 (GASP-2), full-length (from UniProt Q96D09) SWFW>AAAA in first GASP motif (GASP2-m1; residue numbers not printed)”, the results for the percent of parent (% of wild-type GASP-2) in [1] and in experiment [2] were 27 and 24, respectively.

In the case of “GASP-9 (from UniProt Q7L311 1-632) (natural protein)”, the percent of GASP input retained (% of GASP input) was < 1 in [3]; 2 in [4]; < 1 with free GST; < 1 in [5]; 2 in experiment [6]; 2 in [7]. Also, the percent of GASP input retained (% of GASP input) in [8], in experiment [9] and in experiment [10] was 2 throughout.

For “GPCR-associated sorting protein 2 (GASP-2), full-length (from UniProt Q96D09) SWFW>AAAA in first GASP motif; SWFW>AAAA in second GASP motif (GASP2-dm; residue numbers not printed)”, the percent of parent (% of wild-type GASP-2) amounted to 20 in experiment [11], 1.5 in [1] and 5.5 in experiment [2].

These data come from article PMC3575409, “Identification of a Novel Protein-Protein Interaction Motif Mediating Interaction of GPCR-Associated Sorting Proteins with G Protein-Coupled Receptors” (PLoS ONE, 2013).
